According to PMC4114688:
Where two headings read alike, the source gives them in different places.

How the values were obtained:
Assay in all cases: EMSA
[1] = biological target: T1, RBPMS isoform A (Homo sapiens, UniProt Q93062 1-196)
[2] = biological target: T2, RBPMS2 (UniProt Q6ZRY4 1-209)
[3] = biological target: T2, RBPMS2; remark: listed apart in the source
[4] = biological target: RBPMS 1-100 (Homo sapiens, UniProt Q93062 1-100)
[5] = biological target: RBPMS 1-144 (Homo sapiens, UniProt Q93062 1-144)
[6] = biological target: T1, RBPMS isoform A; remark: listed apart in the source
[7] = biological target: T1, RBPMS isoform A; remark: listed apart in the source

T2 sequence (Q6ZRY4 whole entry): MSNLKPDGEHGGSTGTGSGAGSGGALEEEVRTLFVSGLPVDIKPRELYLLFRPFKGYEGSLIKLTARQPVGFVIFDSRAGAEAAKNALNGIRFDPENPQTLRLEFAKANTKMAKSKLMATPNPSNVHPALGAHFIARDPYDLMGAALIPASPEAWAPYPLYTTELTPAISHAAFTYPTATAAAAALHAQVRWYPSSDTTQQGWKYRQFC

UACUCACUCACUCUCCACGAG (ssRNA) [UBE2V1 or SRM 21-nt wt (a)]
binding result [1]: binds

UUUUUUUUUUUUUUUUUU (ssRNA) [U18]
binding result [1]: no binding

GCCGCCGCCGCCGCCGCC (ssRNA) [(GCC)6]
binding result [1]: no binding

AGGCACUUUCAACUUCACUCC (ssRNA) [ETF1 21-nt wt]
binding result [1]: binds | binding result [2]: binds

CUCUCUCUCUCUCUCUCU (ssRNA) [(CU)9]
binding result [3]: no binding | binding result [1]: no binding

CCCUCACUCACCAAACACGUG (ssRNA) [UBE2V1 or SRM 21-nt wt (b)]
binding result [1]: binds

AGAGAGAGAGAGAGAGAG (ssRNA) [(AG)9]
binding result [1]: no binding

CAUCAUCAUCAUCAUCAU (ssRNA) [(CAU)6]
binding result [3]: no binding | binding result [1]: no binding

CACCACCACCACCACCAC (ssRNA) [(CAC)6]
binding result [3]: binds | binding result [1]: binds

ACACACACACACACACAC (ssRNA) [(AC)9]
binding result [3]: binds | binding result [4]: no binding | binding result [5]: binds | binding result [6]: binds

GGCGGCGGCGGCGGCGGC (ssRNA) [(GGC)6]
binding result [1]: no binding

ACACACACACACAC (ssRNA) [(AC)7]
binding result [7]: binds

AAAAAAAAAAAAAAAAAA (ssRNA) [A18]
binding result [1]: no binding
